Test results as given in the Human Domainome abundance scans (Beltran et al. 2025).
± gives the uncertainty stated by the source.

B1: Zinc finger MYM-type protein 6, residues 427 to 504; numbered along this chain, O95789 (parent)
chain: KLKCQHCNHLFATKPELLFYKGKMFLFCGKNCSDEYKKKNKVVAMCDYCKLQKIIKETVRFSGVDKPFCSEVCKFLSA

Variants of: B1
Assay: abundance fitness (aPCA) (normalised: wild type 0, dead -1); higher = more abundant; growth selection in yeast, the domain comes from the species named
Conditions: Homo sapiens
With KLKCQHCNHLFATKPELLFYKGKMFLFCGKNCSDEYKKKGKVVAMCDYCKLQKIIKETVRFSGVDKPFCSEVCKFLSA [N40G] the abundance fitness was -0.086 ± 0.04.
In the case of KLKCQHCNHLFATKPELLFYKGKMFLFCGKNCSDEYKKKDKVVAMCDYCKLQKIIKETVRFSGVDKPFCSEVCKFLSA [N40D], the abundance fitness is reported as 0.019 ± 0.06.
In the case of KLKCQHCNHLFATKPELLPYKGKMFLFCGKNCSDEYKKKNKVVAMCDYCKLQKIIKETVRFSGVDKPFCSEVCKFLSA [F19P], the abundance fitness is reported as 0.101 ± 0.037.
Variant KLKCQHCNHLFATKPELLWYKGKMFLFCGKNCSDEYKKKNKVVAMCDYCKLQKIIKETVRFSGVDKPFCSEVCKFLSA [F19W] has an abundance fitness of -0.005 ± 0.031.
For KLKCQHCNHLFATKPELLFYKGKMFLFCGKNTSDEYKKKNKVVAMCDYCKLQKIIKETVRFSGVDKPFCSEVCKFLSA [C32T], the abundance fitness was -1.29 ± 0.23.
KLKCQHCNHLFATKPELLFYKGKMFLFCGKNCSDEYKKKNKVVAMCDYCKLQKIIKETVRFTGVDKPFCSEVCKFLSA [S62T] gave an abundance fitness of -0.141 ± 0.28.
For KLKCQHCNHLFATKPELLFYKGKMFLFCGKNCSDEYKKKNKVVAMCDYCKLQKIIKETVRFQGVDKPFCSEVCKFLSA [S62Q], the abundance fitness was 0.316 ± 0.08.
KLKCQHCNHLFATKPELLFYKGKMFLDCGKNCSDEYKKKNKVVAMCDYCKLQKIIKETVRFSGVDKPFCSEVCKFLSA [F27D] showed an abundance fitness of -0.553 ± 0.062.
Work on KLKCQHCNHLFATKPELLFYKGKMFLFCGKNCSDEYKKKNKVVAMCDYCRLQKIIKETVRFSGVDKPFCSEVCKFLSA [K50R] yielded an abundance fitness of -0.172 ± 0.074.
Work on KLKCQHCNHLFATKPELLFYKGKMFLFCGKNCSDEYKKKNKVVAMCDYCWLQKIIKETVRFSGVDKPFCSEVCKFLSA [K50W] yielded an abundance fitness of -0.709 ± 0.13.
KLKCQHCNHLFATKPELLFYKGKMFLFCGKNCSDEYKKKNKVVAMCDYCTLQKIIKETVRFSGVDKPFCSEVCKFLSA [K50T] gave an abundance fitness of -0.687 ± 0.45.
With KLKCQHCNHLFATKPELLFYKGKMFLFCGKNCSDEYKKKNKVVAMCDYCKSQKIIKETVRFSGVDKPFCSEVCKFLSA [L51S] the abundance fitness was 0.567 ± 0.089.
With KLKCQHCNHLFATKPELLFYKGKMFLFCGKNCSDEYKKKNKVVAMCDYCKGQKIIKETVRFSGVDKPFCSEVCKFLSA [L51G] the abundance fitness was 0.484 ± 0.058.
KLKCQHCNHLFATKWELLFYKGKMFLFCGKNCSDEYKKKNKVVAMCDYCKLQKIIKETVRFSGVDKPFCSEVCKFLSA [P15W] gave an abundance fitness of -0.534 ± 0.041.
KLKCQHCNHLFATKEELLFYKGKMFLFCGKNCSDEYKKKNKVVAMCDYCKLQKIIKETVRFSGVDKPFCSEVCKFLSA [P15E] showed an abundance fitness of -0.083 ± 0.043.
For KLKCQHCNHLFATKPELLFYWGKMFLFCGKNCSDEYKKKNKVVAMCDYCKLQKIIKETVRFSGVDKPFCSEVCKFLSA [K21W], the abundance fitness was -0.133 ± 0.038.
Variant KLKCQHCNHLFATKPELLFYKGKMFLFCGKNCSDEYKKKNKVVAMCAYCKLQKIIKETVRFSGVDKPFCSEVCKFLSA [D47A] has an abundance fitness of -0.033 ± 0.087.
For KLKCQHCNHLFATKPMLLFYKGKMFLFCGKNCSDEYKKKNKVVAMCDYCKLQKIIKETVRFSGVDKPFCSEVCKFLSA [E16M], the abundance fitness was -0.14 ± 0.044.
With KLKCTHCNHLFATKPELLFYKGKMFLFCGKNCSDEYKKKNKVVAMCDYCKLQKIIKETVRFSGVDKPFCSEVCKFLSA [Q5T] the abundance fitness was -0.113 ± 0.043.
Variant KLKCQHCNHLFATKPELLFYKGKMFLFCGKNCSDEYKKKNKVVAMCDYCKLQKIKKETVRFSGVDKPFCSEVCKFLSA [I55K] has an abundance fitness of -0.138 ± 0.46.
KLKCQHCNHLFATKPELLFYKGKMFLFCGKNCSDEYKKKNKVVAMCDYCKLQKIIKETVRFSGVDKPFESEVCKFLSA [C69E] showed an abundance fitness of -0.286 ± 0.15.
KLKCQGCNHLFATKPELLFYKGKMFLFCGKNCSDEYKKKNKVVAMCDYCKLQKIIKETVRFSGVDKPFCSEVCKFLSA [H6G] gave an abundance fitness of -0.04 ± 0.027.
KLKCQHCNHLFATKPELLFYKGKMFLFCGKNCSDEYKKKNKVVAMCDYCKLQKIIKETVRFSGVDKPFCWEVCKFLSA [S70W] showed an abundance fitness of -1.14 ± 0.27.
In the case of KLKCQHCNHLFATKPELLFYKGKMFLFCGKNCSDEYKKKNKVVAMCDYCKLQKIIKETVQFSGVDKPFCSEVCKFLSA [R60Q], the abundance fitness is reported as 0.014 ± 0.16.
KLKCQHCNHLFATKPELLFYKGKMFLFCGKNCSDEYKKKNKVVAMCDYCKLQKIIKETVHFSGVDKPFCSEVCKFLSA [R60H] gave an abundance fitness of 0.001 ± 0.28.
In the case of KLKCQHCNHLFATKPELLFYKGKMFLFCGKNCSDEYKKKNKVVAMCDYCKLQKIIKETVLFSGVDKPFCSEVCKFLSA [R60L], the abundance fitness is reported as -0.309 ± 0.13.
KLKCQHCNHLFATKPELLFYKGKMFLFCGKNCSDEYKKKNKVVAMCDYCKLQKIIKETARFSGVDKPFCSEVCKFLSA [V59A] gave an abundance fitness of -0.078 ± 0.095.
KLKCQHCNHLFATKPELLFYKGKMFLFCGKNCSDEYKKKNKVVAMCDYCKLKKIIKETVRFSGVDKPFCSEVCKFLSA [Q52K] gave an abundance fitness of 0.51 ± 0.11.
Variant KLKCQHCNHLFATKPELLFYKGKMFLFCGKNCSDEYKKHNKVVAMCDYCKLQKIIKETVRFSGVDKPFCSEVCKFLSA [K39H] has an abundance fitness of -0.078 ± 0.095.
With KLKCQHCNHLFATKPELLFYKGKMFLFCGKNCSDEYKKANKVVAMCDYCKLQKIIKETVRFSGVDKPFCSEVCKFLSA [K39A] the abundance fitness was 0.029 ± 0.03.
In the case of KLKCQHCNHLGATKPELLFYKGKMFLFCGKNCSDEYKKKNKVVAMCDYCKLQKIIKETVRFSGVDKPFCSEVCKFLSA [F11G], the abundance fitness is reported as -0.171 ± 0.029.
For KLKCQHCNHLFATKPELLFYKGKMFLFCGKNCSDEYKKKNKVVAMDDYCKLQKIIKETVRFSGVDKPFCSEVCKFLSA [C46D], the abundance fitness was -0.531 ± 0.15.
KLKCQHCNHLFATKPELLFYKGKMFLFCGKNCSDEYKKKNKVVAMKDYCKLQKIIKETVRFSGVDKPFCSEVCKFLSA [C46K] showed an abundance fitness of 0.241 ± 0.13.
KLKCQHCNHLFATKPELLFYKGKMFLFCGKNCSDEYKKKNKVVAMCDYCKLQKIIKETVRFSGVDKPFCSPVCKFLSA [E71P] gave an abundance fitness of -0.054 ± 0.16.
For KLKCQHCNHLFATKPELLFYKGKGFLFCGKNCSDEYKKKNKVVAMCDYCKLQKIIKETVRFSGVDKPFCSEVCKFLSA [M24G], the abundance fitness was -0.059 ± 0.03.
